Measurements from paper PMC12416549 (2024).

T1: TNFR1 (Homo sapiens, UniProt P19438)
T1 chain: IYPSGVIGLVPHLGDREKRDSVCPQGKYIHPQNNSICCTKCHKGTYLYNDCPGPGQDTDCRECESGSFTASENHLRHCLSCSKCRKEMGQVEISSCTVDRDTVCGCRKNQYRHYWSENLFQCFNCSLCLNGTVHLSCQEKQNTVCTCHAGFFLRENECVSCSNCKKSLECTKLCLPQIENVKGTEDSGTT


Target: T1, TNFR1
Test: yeast display SC50

| apparent Kd (screen) | Binder |
| --- | --- |
| 1.16 nM | A17K (designed binder) MTLQELLREEALRRAEKEAFRYALELLAEKFPEQKEYLLDLAEEIESQIRSLSGVDVEDVRKFLDKEWAWVKELLAEHPAELAEVEAARAARLAELRAEVEAKVAA |
| 0.539 nM | L12Y (designed binder) MTLQELLREEAYRRAEAEAFRYALELLAEKFPEQKEYLLDLAEEIESQIRSLSGVDVEDVRKFLDKEWAWVKELLAEHPAELAEVEAARAARLAELRAEVEAKVAA |
| 2.25 nM | L3W (designed binder) MTWQELLREEALRRAEAEAFRYALELLAEKFPEQKEYLLDLAEEIESQIRSLSGVDVEDVRKFLDKEWAWVKELLAEHPAELAEVEAARAARLAELRAEVEAKVAA |
| 0.718 nM | A90C (designed binder) MTLQELLREEALRRAEAEAFRYALELLAEKFPEQKEYLLDLAEEIESQIRSLSGVDVEDVRKFLDKEWAWVKELLAEHPAELAEVEAARCARLAELRAEVEAKVAA |
| 0.869 nM | K62G (designed binder) MTLQELLREEALRRAEAEAFRYALELLAEKFPEQKEYLLDLAEEIESQIRSLSGVDVEDVRGFLDKEWAWVKELLAEHPAELAEVEAARAARLAELRAEVEAKVAA |
| 0.49 nM | A102E (designed binder) MTLQELLREEALRRAEAEAFRYALELLAEKFPEQKEYLLDLAEEIESQIRSLSGVDVEDVRKFLDKEWAWVKELLAEHPAELAEVEAARAARLAELRAEVEEKVAA |
| 0.956 nM | A88V (designed binder) MTLQELLREEALRRAEAEAFRYALELLAEKFPEQKEYLLDLAEEIESQIRSLSGVDVEDVRKFLDKEWAWVKELLAEHPAELAEVEAVRAARLAELRAEVEAKVAA |
| 1.16 nM | K35E (designed binder) MTLQELLREEALRRAEAEAFRYALELLAEKFPEQEEYLLDLAEEIESQIRSLSGVDVEDVRKFLDKEWAWVKELLAEHPAELAEVEAARAARLAELRAEVEAKVAA |
| 0.869 nM | K103Y (designed binder) MTLQELLREEALRRAEAEAFRYALELLAEKFPEQKEYLLDLAEEIESQIRSLSGVDVEDVRKFLDKEWAWVKELLAEHPAELAEVEAARAARLAELRAEVEAYVAA |
| 15.2 nM | L52M (designed binder) MTLQELLREEALRRAEAEAFRYALELLAEKFPEQKEYLLDLAEEIESQIRSMSGVDVEDVRKFLDKEWAWVKELLAEHPAELAEVEAARAARLAELRAEVEAKVAA |
| 18.3 nM | L7T (designed binder) MTLQELTREEALRRAEAEAFRYALELLAEKFPEQKEYLLDLAEEIESQIRSLSGVDVEDVRKFLDKEWAWVKELLAEHPAELAEVEAARAARLAELRAEVEAKVAA |
| 1.4 nM | L93G (designed binder) MTLQELLREEALRRAEAEAFRYALELLAEKFPEQKEYLLDLAEEIESQIRSLSGVDVEDVRKFLDKEWAWVKELLAEHPAELAEVEAARAARGAELRAEVEAKVAA |
| 0.653 nM | E9M (designed binder) MTLQELLRMEALRRAEAEAFRYALELLAEKFPEQKEYLLDLAEEIESQIRSLSGVDVEDVRKFLDKEWAWVKELLAEHPAELAEVEAARAARLAELRAEVEAKVAA |
| 0.869 nM | A83I (designed binder) MTLQELLREEALRRAEAEAFRYALELLAEKFPEQKEYLLDLAEEIESQIRSLSGVDVEDVRKFLDKEWAWVKELLAEHPAELIEVEAARAARLAELRAEVEAKVAA |
| 0.539 nM | A76Y (designed binder) MTLQELLREEALRRAEAEAFRYALELLAEKFPEQKEYLLDLAEEIESQIRSLSGVDVEDVRKFLDKEWAWVKELLYEHPAELAEVEAARAARLAELRAEVEAKVAA |
| 0.653 nM | S47K (designed binder) MTLQELLREEALRRAEAEAFRYALELLAEKFPEQKEYLLDLAEEIEKQIRSLSGVDVEDVRKFLDKEWAWVKELLAEHPAELAEVEAARAARLAELRAEVEAKVAA |
| 1.86 nM | H78L (designed binder) MTLQELLREEALRRAEAEAFRYALELLAEKFPEQKEYLLDLAEEIESQIRSLSGVDVEDVRKFLDKEWAWVKELLAELPAELAEVEAARAARLAELRAEVEAKVAA |
| 0.593 nM | A87N (designed binder) MTLQELLREEALRRAEAEAFRYALELLAEKFPEQKEYLLDLAEEIESQIRSLSGVDVEDVRKFLDKEWAWVKELLAEHPAELAEVENARAARLAELRAEVEAKVAA |

| apparent Kd (screen) | Binder |
| --- | --- |
| 1.54 nM | F63I (designed binder) MTLQELLREEALRRAEAEAFRYALELLAEKFPEQKEYLLDLAEEIESQIRSLSGVDVEDVRKILDKEWAWVKELLAEHPAELAEVEAARAARLAELRAEVEAKVAA |
| 0.593 nM | L12W (designed binder) MTLQELLREEAWRRAEAEAFRYALELLAEKFPEQKEYLLDLAEEIESQIRSLSGVDVEDVRKFLDKEWAWVKELLAEHPAELAEVEAARAARLAELRAEVEAKVAA |
| 0.956 nM | A94P (designed binder) MTLQELLREEALRRAEAEAFRYALELLAEKFPEQKEYLLDLAEEIESQIRSLSGVDVEDVRKFLDKEWAWVKELLAEHPAELAEVEAARAARLPELRAEVEAKVAA |
| 20.2 nM | A28L (designed binder) MTLQELLREEALRRAEAEAFRYALELLLEKFPEQKEYLLDLAEEIESQIRSLSGVDVEDVRKFLDKEWAWVKELLAEHPAELAEVEAARAARLAELRAEVEAKVAA |
| 0.446 nM | A76D (designed binder) MTLQELLREEALRRAEAEAFRYALELLAEKFPEQKEYLLDLAEEIESQIRSLSGVDVEDVRKFLDKEWAWVKELLDEHPAELAEVEAARAARLAELRAEVEAKVAA |
| 0.593 nM | R8I (designed binder) MTLQELLIEEALRRAEAEAFRYALELLAEKFPEQKEYLLDLAEEIESQIRSLSGVDVEDVRKFLDKEWAWVKELLAEHPAELAEVEAARAARLAELRAEVEAKVAA |
| 0.593 nM | A91H (designed binder) MTLQELLREEALRRAEAEAFRYALELLAEKFPEQKEYLLDLAEEIESQIRSLSGVDVEDVRKFLDKEWAWVKELLAEHPAELAEVEAARAHRLAELRAEVEAKVAA |
| 0.718 nM | E86T (designed binder) MTLQELLREEALRRAEAEAFRYALELLAEKFPEQKEYLLDLAEEIESQIRSLSGVDVEDVRKFLDKEWAWVKELLAEHPAELAEVTAARAARLAELRAEVEAKVAA |
| 1.27 nM | E86K (designed binder) MTLQELLREEALRRAEAEAFRYALELLAEKFPEQKEYLLDLAEEIESQIRSLSGVDVEDVRKFLDKEWAWVKELLAEHPAELAEVKAARAARLAELRAEVEAKVAA |
| 0.869 nM | V85S (designed binder) MTLQELLREEALRRAEAEAFRYALELLAEKFPEQKEYLLDLAEEIESQIRSLSGVDVEDVRKFLDKEWAWVKELLAEHPAELAESEAARAARLAELRAEVEAKVAA |
| 0.539 nM | E29C (designed binder) MTLQELLREEALRRAEAEAFRYALELLACKFPEQKEYLLDLAEEIESQIRSLSGVDVEDVRKFLDKEWAWVKELLAEHPAELAEVEAARAARLAELRAEVEAKVAA |
| 1.69 nM | L52F (designed binder) MTLQELLREEALRRAEAEAFRYALELLAEKFPEQKEYLLDLAEEIESQIRSFSGVDVEDVRKFLDKEWAWVKELLAEHPAELAEVEAARAARLAELRAEVEAKVAA |
| 0.49 nM | Q48N (designed binder) MTLQELLREEALRRAEAEAFRYALELLAEKFPEQKEYLLDLAEEIESNIRSLSGVDVEDVRKFLDKEWAWVKELLAEHPAELAEVEAARAARLAELRAEVEAKVAA |
| 0.49 nM | V60M (designed binder) MTLQELLREEALRRAEAEAFRYALELLAEKFPEQKEYLLDLAEEIESQIRSLSGVDVEDMRKFLDKEWAWVKELLAEHPAELAEVEAARAARLAELRAEVEAKVAA |
| 0.653 nM | M1W (designed binder) WTLQELLREEALRRAEAEAFRYALELLAEKFPEQKEYLLDLAEEIESQIRSLSGVDVEDVRKFLDKEWAWVKELLAEHPAELAEVEAARAARLAELRAEVEAKVAA |
| 0.49 nM | L27K (designed binder) MTLQELLREEALRRAEAEAFRYALELKAEKFPEQKEYLLDLAEEIESQIRSLSGVDVEDVRKFLDKEWAWVKELLAEHPAELAEVEAARAARLAELRAEVEAKVAA |
| 0.49 nM | A91F (designed binder) MTLQELLREEALRRAEAEAFRYALELLAEKFPEQKEYLLDLAEEIESQIRSLSGVDVEDVRKFLDKEWAWVKELLAEHPAELAEVEAARAFRLAELRAEVEAKVAA |
